Experimental data reported in the supplement of paper PMC9112550, “Optimization of the antimicrobial peptide Bac7 by deep mutational scanning” (BMC Biology, 2022).

System: Escherichia coli TOP10
Assay: shrunken log2 fold change of peptide-encoding DNA abundance (4.5 h post-induction vs induction); higher = less antimicrobial activity (less host growth inhibition)
Settings: time post-induction: 4.5 h; library: site-saturation at positions 5, 18, 19, 20
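Note: peptides expressed intracellularly from a pBAD plasmid library in pooled LB shake-flask culture, induced with 0.3% L-arabinose, DNA abundance read by NGS, three biological replicates, DESeq2 with apeglm shrinkage.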

RRIRQRPPRLPRPRPRPEFQPRP was tested, and the “shrunken log2 fold change” value was -0.0764.
RRIRMRPPRLPRPRPRPTSIPRP was tested, and the “shrunken log2 fold change” value was -0.0517.
For RRIRFRPPRLPRPRPRPKLQPRP, the “shrunken log2 fold change” value was -0.0358.
For RRIRQRPPRLPRPRPRPWAHPRP, the “shrunken log2 fold change” value was -0.0595.
For RRIRQRPPRLPRPRPRPKYDPRP, the “shrunken log2 fold change” value was -0.165.
For RRIRCRPPRLPRPRPRPAPNPRP, the “shrunken log2 fold change” value was 0.526.
With RRIRWRPPRLPRPRPRPALNPRP the “shrunken log2 fold change” value was 0.801.
RRIRVRPPRLPRPRPRPRRHPRP was tested, and the “shrunken log2 fold change” value was 0.252.
RRIRARPPRLPRPRPRPESVPRP was tested, and the “shrunken log2 fold change” value was 0.886.
With RRIRLRPPRLPRPRPRPHCKPRP the “shrunken log2 fold change” value was -0.708.
For RRIRYRPPRLPRPRPRPVGLPRP, the “shrunken log2 fold change” value was 0.158.
RRIRHRPPRLPRPRPRPLEVPRP was tested, and the “shrunken log2 fold change” value was -0.184.
RRIRSRPPRLPRPRPRPSMNPRP was tested, and the “shrunken log2 fold change” value was -0.454.
In the case of RRIRWRPPRLPRPRPRPHMQPRP, the “shrunken log2 fold change” value is reported as -0.0363.
For RRIRWRPPRLPRPRPRPEKQPRP, the “shrunken log2 fold change” value was 0.0441.
With RRIRVRPPRLPRPRPRPCPNPRP the “shrunken log2 fold change” value was -0.245.
For RRIRYRPPRLPRPRPRPSCGPRP, the “shrunken log2 fold change” value was -0.184.
In the case of RRIRGRPPRLPRPRPRPVADPRP, the “shrunken log2 fold change” value is reported as 1.34.
For RRIRARPPRLPRPRPRPFLYPRP, the “shrunken log2 fold change” value was -0.0961.
For RRIRYRPPRLPRPRPRPWLWPRP, the “shrunken log2 fold change” value was 0.0662.
In the case of RRIRPRPPRLPRPRPRPQDNPRP, the “shrunken log2 fold change” value is reported as -0.548.
In the case of RRIRQRPPRLPRPRPRPLQHPRP, the “shrunken log2 fold change” value is reported as 0.164.
In the case of RRIRYRPPRLPRPRPRPDWGPRP, the “shrunken log2 fold change” value is reported as -0.0597.
With RRIRDRPPRLPRPRPRPCWYPRP the “shrunken log2 fold change” value was -0.369.
RRIRKRPPRLPRPRPRPLKWPRP was tested, and the “shrunken log2 fold change” value was 0.18.
RRIRYRPPRLPRPRPRPNILPRP was tested, and the “shrunken log2 fold change” value was -1.9.
In the case of RRIRHRPPRLPRPRPRPGGQPRP, the “shrunken log2 fold change” value is reported as 0.0463.
RRIRMRPPRLPRPRPRPNRCPRP was tested, and the “shrunken log2 fold change” value was 0.172.
With RRIRRRPPRLPRPRPRPVTMPRP the “shrunken log2 fold change” value was 0.0683.
In the case of RRIRFRPPRLPRPRPRPMQCPRP, the “shrunken log2 fold change” value is reported as 0.188.
With RRIRFRPPRLPRPRPRPQTYPRP the “shrunken log2 fold change” value was -0.69.
In the case of RRIRFRPPRLPRPRPRPMGWPRP, the “shrunken log2 fold change” value is reported as 0.0642.
With RRIRNRPPRLPRPRPRPFWFPRP the “shrunken log2 fold change” value was 0.195.
RRIRMRPPRLPRPRPRPVDAPRP was tested, and the “shrunken log2 fold change” value was 1.17.
For RRIRQRPPRLPRPRPRPPDQPRP, the “shrunken log2 fold change” value was 1.82.
RRIRCRPPRLPRPRPRPYQKPRP was tested, and the “shrunken log2 fold change” value was -0.0372.
In the case of RRIRQRPPRLPRPRPRPHPVPRP, the “shrunken log2 fold change” value is reported as 0.0674.
In the case of RRIRYRPPRLPRPRPRPTFLPRP, the “shrunken log2 fold change” value is reported as -0.495.
For RRIRARPPRLPRPRPRPWVNPRP, the “shrunken log2 fold change” value was -0.246.
In the case of RRIRKRPPRLPRPRPRPTHCPRP, the “shrunken log2 fold change” value is reported as 0.251.
With RRIRKRPPRLPRPRPRPMHWPRP the “shrunken log2 fold change” value was 0.136.
With RRIRCRPPRLPRPRPRPQKEPRP the “shrunken log2 fold change” value was -0.104.
RRIRDRPPRLPRPRPRPRCMPRP was tested, and the “shrunken log2 fold change” value was -0.158.
RRIRARPPRLPRPRPRPRYFPRP was tested, and the “shrunken log2 fold change” value was -0.0939.
For RRIRCRPPRLPRPRPRPNQQPRP, the “shrunken log2 fold change” value was 0.00277.
RRIRSRPPRLPRPRPRPKCEPRP was tested, and the “shrunken log2 fold change” value was -0.125.
For RRIRYRPPRLPRPRPRPKDGPRP, the “shrunken log2 fold change” value was -0.613.
In the case of RRIRGRPPRLPRPRPRPWPRPRP, the “shrunken log2 fold change” value is reported as 0.37.
RRIRFRPPRLPRPRPRPLTWPRP was tested, and the “shrunken log2 fold change” value was -0.163.
With RRIRVRPPRLPRPRPRPRQAPRP the “shrunken log2 fold change” value was 0.224.
In the case of RRIRQRPPRLPRPRPRPCYYPRP, the “shrunken log2 fold change” value is reported as -0.265.
For RRIRCRPPRLPRPRPRPGTDPRP, the “shrunken log2 fold change” value was -0.00121.
RRIRSRPPRLPRPRPRPFHMPRP was tested, and the “shrunken log2 fold change” value was -0.365.
In the case of RRIRKRPPRLPRPRPRPFTYPRP, the “shrunken log2 fold change” value is reported as -0.0389.
RRIRCRPPRLPRPRPRPDPIPRP was tested, and the “shrunken log2 fold change” value was -0.0573.
For RRIRKRPPRLPRPRPRPVKGPRP, the “shrunken log2 fold change” value was 0.322.
RRIRSRPPRLPRPRPRPRKVPRP was tested, and the “shrunken log2 fold change” value was 1.58.
RRIRYRPPRLPRPRPRPKYKPRP was tested, and the “shrunken log2 fold change” value was -0.78.
In the case of RRIRHRPPRLPRPRPRPGSKPRP, the “shrunken log2 fold change” value is reported as -0.00664.
In the case of RRIRGRPPRLPRPRPRPKALPRP, the “shrunken log2 fold change” value is reported as 0.0797.
With RRIRPRPPRLPRPRPRPGWIPRP the “shrunken log2 fold change” value was -0.0354.
With RRIRSRPPRLPRPRPRPIWVPRP the “shrunken log2 fold change” value was 0.0576.
For RRIRFRPPRLPRPRPRPHACPRP, the “shrunken log2 fold change” value was -0.867.
RRIRQRPPRLPRPRPRPDEVPRP was tested, and the “shrunken log2 fold change” value was 0.0037.
In the case of RRIRIRPPRLPRPRPRPACSPRP, the “shrunken log2 fold change” value is reported as -0.129.
RRIRMRPPRLPRPRPRPYFGPRP was tested, and the “shrunken log2 fold change” value was -0.138.
For RRIRNRPPRLPRPRPRPDDEPRP, the “shrunken log2 fold change” value was -0.00101.
RRIRCRPPRLPRPRPRPQLFPRP was tested, and the “shrunken log2 fold change” value was -0.242.
With RRIRDRPPRLPRPRPRPLHIPRP the “shrunken log2 fold change” value was -0.0915.
RRIRTRPPRLPRPRPRPEGTPRP was tested, and the “shrunken log2 fold change” value was 0.0681.
RRIRKRPPRLPRPRPRPKVSPRP was tested, and the “shrunken log2 fold change” value was -0.0412.
RRIRGRPPRLPRPRPRPTGNPRP was tested, and the “shrunken log2 fold change” value was 0.452.
For RRIRSRPPRLPRPRPRPTFMPRP, the “shrunken log2 fold change” value was -0.335.
With RRIRGRPPRLPRPRPRPKNQPRP the “shrunken log2 fold change” value was 0.551.
RRIRFRPPRLPRPRPRPHRMPRP was tested, and the “shrunken log2 fold change” value was -0.15.
For RRIRPRPPRLPRPRPRPPCMPRP, the “shrunken log2 fold change” value was -0.165.
In the case of RRIRKRPPRLPRPRPRPRMPPRP, the “shrunken log2 fold change” value is reported as 0.363.
In the case of RRIRRRPPRLPRPRPRPCPVPRP, the “shrunken log2 fold change” value is reported as -0.256.
With RRIRIRPPRLPRPRPRPCQTPRP the “shrunken log2 fold change” value was -0.02.
In the case of RRIRHRPPRLPRPRPRPAIWPRP, the “shrunken log2 fold change” value is reported as 0.137.
RRIRPRPPRLPRPRPRPEGNPRP was tested, and the “shrunken log2 fold change” value was 0.189.
In the case of RRIRQRPPRLPRPRPRPSREPRP, the “shrunken log2 fold change” value is reported as 0.111.
RRIRIRPPRLPRPRPRPQNCPRP was tested, and the “shrunken log2 fold change” value was -0.0145.
For RRIRIRPPRLPRPRPRPTVLPRP, the “shrunken log2 fold change” value was -0.369.
RRIRLRPPRLPRPRPRPELYPRP was tested, and the “shrunken log2 fold change” value was -0.0383.
For RRIRLRPPRLPRPRPRPEWTPRP, the “shrunken log2 fold change” value was -0.019.
In the case of RRIRGRPPRLPRPRPRPPASPRP, the “shrunken log2 fold change” value is reported as 1.07.
RRIRPRPPRLPRPRPRPTPMPRP was tested, and the “shrunken log2 fold change” value was 0.208.
RRIRCRPPRLPRPRPRPVNHPRP was tested, and the “shrunken log2 fold change” value was -0.444.
For RRIRERPPRLPRPRPRPTNMPRP, the “shrunken log2 fold change” value was -0.568.
In the case of RRIRKRPPRLPRPRPRPPNHPRP, the “shrunken log2 fold change” value is reported as 0.33.
With RRIRCRPPRLPRPRPRPLIMPRP the “shrunken log2 fold change” value was -0.689.
RRIRDRPPRLPRPRPRPTDGPRP was tested, and the “shrunken log2 fold change” value was -0.107.
With RRIRCRPPRLPRPRPRPMLCPRP the “shrunken log2 fold change” value was 0.0786.
In the case of RRIRQRPPRLPRPRPRPVSDPRP, the “shrunken log2 fold change” value is reported as -0.0568.
For RRIRSRPPRLPRPRPRPCMLPRP, the “shrunken log2 fold change” value was -0.472.
With RRIRCRPPRLPRPRPRPKRFPRP the “shrunken log2 fold change” value was 0.322.
RRIRHRPPRLPRPRPRPGSEPRP was tested, and the “shrunken log2 fold change” value was 0.176.
RRIRRRPPRLPRPRPRPRGKPRP was tested, and the “shrunken log2 fold change” value was 0.694.
With RRIRARPPRLPRPRPRPGMHPRP the “shrunken log2 fold change” value was 0.233.
RRIRNRPPRLPRPRPRPGVMPRP was tested, and the “shrunken log2 fold change” value was -0.141.
In the case of RRIRMRPPRLPRPRPRPDCMPRP, the “shrunken log2 fold change” value is reported as 2.24.
For RRIRKRPPRLPRPRPRPCDSPRP, the “shrunken log2 fold change” value was -0.212.
RRIRCRPPRLPRPRPRPSTVPRP was tested, and the “shrunken log2 fold change” value was -0.443.
For RRIRSRPPRLPRPRPRPLTPPRP, the “shrunken log2 fold change” value was 0.166.
RRIRKRPPRLPRPRPRPANYPRP was tested, and the “shrunken log2 fold change” value was 0.0421.
For RRIRSRPPRLPRPRPRPGSTPRP, the “shrunken log2 fold change” value was 0.0972.
RRIRCRPPRLPRPRPRPVNQPRP was tested, and the “shrunken log2 fold change” value was -0.174.
With RRIRNRPPRLPRPRPRPDNQPRP the “shrunken log2 fold change” value was -0.323.
With RRIRVRPPRLPRPRPRPSPYPRP the “shrunken log2 fold change” value was -0.409.
With RRIRGRPPRLPRPRPRPQYGPRP the “shrunken log2 fold change” value was -0.008.
With RRIRFRPPRLPRPRPRPHYRPRP the “shrunken log2 fold change” value was -0.206.
For RRIRQRPPRLPRPRPRPAGFPRP, the “shrunken log2 fold change” value was 0.266.
For RRIRPRPPRLPRPRPRPALHPRP, the “shrunken log2 fold change” value was 0.681.
For RRIRARPPRLPRPRPRPMFLPRP, the “shrunken log2 fold change” value was 0.00213.
RRIRGRPPRLPRPRPRPMNQPRP was tested, and the “shrunken log2 fold change” value was 0.0945.
RRIRVRPPRLPRPRPRPPNLPRP was tested, and the “shrunken log2 fold change” value was 0.239.
In the case of RRIRKRPPRLPRPRPRPIYQPRP, the “shrunken log2 fold change” value is reported as -0.0246.
For RRIRKRPPRLPRPRPRPTRCPRP, the “shrunken log2 fold change” value was 0.876.
RRIRHRPPRLPRPRPRPQLIPRP was tested, and the “shrunken log2 fold change” value was 0.00748.
For RRIRKRPPRLPRPRPRPCIPPRP, the “shrunken log2 fold change” value was -0.0433.
With RRIRKRPPRLPRPRPRPHDEPRP the “shrunken log2 fold change” value was 0.261.
For RRIRRRPPRLPRPRPRPRVIPRP, the “shrunken log2 fold change” value was 0.0591.
For RRIRYRPPRLPRPRPRPYMRPRP, the “shrunken log2 fold change” value was -1.01.
RRIRHRPPRLPRPRPRPRYGPRP was tested, and the “shrunken log2 fold change” value was -0.629.
